Measurements: article PMC7375649, “Varicella zoster virus encodes a viral decoy RHIM to inhibit cell death” (PLoS Pathogens, 2020)

B1: YPet-ZBP1_(170-355) (domain or fragment)
chain: SGRRAKSASIIYQHNPINMICQNGPNSWISIANSEAIQIGHGNIITRQTVSREDGSAGPRHLPSMAPGDSSTWGTLVDPWGPQDIHMEQSILRRVQLGHSNEMRLHGVPSEGPAHIPPGSPPVSATAAGPEASFEARIPSPGTHPEGEAAQRIHMKSCFLEDATIGNSNKMSISPGVAGPGGVAGS
notes: human ZBP1, RHIM-containing region, residues 170-355; also called YPet-ZBP1 RHIM; source: E. coli BL21(DE3) pLysS, purified from inclusion bodies under denaturing conditions (Ni-NTA)
B2: YPet-RIPK3_(387-518) (domain or fragment)
chain: TSSDSMAQPPQTPETSTFRNQMPSPTSTGTPSPGPRGNQGAERQGMNWSCRTPEPNPVTGRPLVNIYNCSGVQVGDNNYLTMQQTTALPTWGLAPSGKGRGLQHPPPVGSQEGPKDPEAWSRPQGWYNHSGK
notes: human RIPK3, RHIM-containing region, residues 387-518; source: E. coli BL21(DE3) pLysS, purified from inclusion bodies under denaturing conditions (Ni-NTA)

Biological target: the molecule itself
Assay: single molecule fluorescence confocal spectroscopy (two-colour coincidence); proteins alone or one mCherry-tagged and one YPet-tagged protein mixed, diluted out of 8 M urea to 0.35-0.7 uM in 25 mM NaH2PO4, 150 mM NaCl, 0.5 mM DTT, pH 7.4; room temperature; 488 and 561 nm lasers

| Protein | binding result |
| --- | --- |
| B1 | binds |
| B2 | binds |
